Measurements: article PMC10908866, “A structural and dynamic visualization of the interaction between MAP7 and microtubules” (Nature Communications, 2024)
Where no end group is shown, it is not given here.

B1: MAP7 microtubule-binding domain (MTBD), residues 59-170 (domain or fragment, human, UniProt Q14244 59-170, looked up)
chain: PVLRVDDRQRLARERREEREKQLAAREIVWLEREERARQHYEKHLEERKKRLEEQRQKEERRRAAVEEKRRQRLEEDKERHEAVVRRTMERSQKPKQKHNRWSWGGSLHGSP
notes: Uniformly [13C-15N] labelled in the NMR experiments; The deposited model PDB 8RC1 holds only a poly-alanine backbone of residues 63-151; also called MAP7 MTBD; MT-associated protein 7 MTBD; not shown: His-Tag, N-terminal, cleaved

How the values were obtained:
[1] = target: T1, microtubules polymerised from porcine brain α/β-tubulin (porcine, UniProt P02550 1-451; P02554 1-445); assay: ITC; 150 µM MAP7 MTBD titrated in 2 µL steps to 164 µL of 15 µM Taxol-stabilized MT; 37 °C; NMR buffer (40 mM NaPi pH 6.5, 150 mM NaCl) with 1 mM β-ME and 1 mM GTP; duplicates; settings: both partners purified
T1 construct: α-tubulin of porcine brain tubulin; β-tubulin of porcine brain tubulin; Polymer of α/β-tubulin heterodimers (13 or 14 protofilaments in cryo-EM); Brain tubulin is a mixture of isotypes; For ITC and NMR samples the methods say only 'lyophilized tubulin (Cytoskeleton)' without species; also called MTs; MT; source: bought: Cytoskeleton (porcine brain tubulin, Cat No. T240; lyophilized tubulin), …

[2] = target: B1; assay: fluorescence polarisation; fluorescence anisotropy; 1 µM NHS-fluorescein-labelled α-CTT, MAP7 MTBD 200 to 0 µM, 384-well plate; 40 mM NaPi pH 6.5, 150 mM NaCl, 1 mM DTT; fit with DynaFit; settings: both partners purified

T1 sequence (P02550 whole entry, chain 1 of 2): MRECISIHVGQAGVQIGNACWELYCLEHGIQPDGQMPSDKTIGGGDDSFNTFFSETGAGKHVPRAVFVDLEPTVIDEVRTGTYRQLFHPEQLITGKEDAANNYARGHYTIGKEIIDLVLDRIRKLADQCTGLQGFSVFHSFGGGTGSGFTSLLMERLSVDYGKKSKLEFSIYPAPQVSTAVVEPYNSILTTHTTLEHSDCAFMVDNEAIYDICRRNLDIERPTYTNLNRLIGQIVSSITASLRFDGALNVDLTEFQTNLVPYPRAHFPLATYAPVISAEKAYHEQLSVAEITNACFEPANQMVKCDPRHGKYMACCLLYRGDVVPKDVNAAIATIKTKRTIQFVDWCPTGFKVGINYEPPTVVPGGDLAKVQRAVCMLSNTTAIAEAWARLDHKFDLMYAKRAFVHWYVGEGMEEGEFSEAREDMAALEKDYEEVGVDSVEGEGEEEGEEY
T1 sequence (P02554 whole entry, chain 2 of 2): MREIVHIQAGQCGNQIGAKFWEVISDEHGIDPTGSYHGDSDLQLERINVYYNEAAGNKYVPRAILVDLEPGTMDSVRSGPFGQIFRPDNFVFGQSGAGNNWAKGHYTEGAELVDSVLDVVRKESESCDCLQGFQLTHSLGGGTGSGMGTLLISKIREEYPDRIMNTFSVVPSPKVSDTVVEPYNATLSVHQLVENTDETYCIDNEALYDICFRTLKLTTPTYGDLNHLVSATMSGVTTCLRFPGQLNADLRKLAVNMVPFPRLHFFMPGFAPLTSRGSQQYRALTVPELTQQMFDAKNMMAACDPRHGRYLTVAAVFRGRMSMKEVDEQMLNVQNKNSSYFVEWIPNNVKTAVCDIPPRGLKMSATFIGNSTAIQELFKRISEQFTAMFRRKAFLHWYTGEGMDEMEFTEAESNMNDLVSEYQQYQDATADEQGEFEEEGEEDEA

| Binder | Kd [1] | stoichiometry N [1] | Kd [2] |
| --- | --- | --- | --- |
| B1 | 940 nM | 0.51 ± 0.09 | – |
| SVEGEGEEEGEEY (also: NHS-fluorescein attached, position not given here, C-terminal tail of HeLa S3 α-tubulin, residues Ser 439-Tyr 451; also called fluorescein labelled α-CTT; NHS-fluorescein-labelled α-CTT; source: synthetic peptide, bought: Sigma-Aldrich; labelled with NHS-fluorescein and dialysed) [NHS-fluorescein-labelled α-tubulin C-terminal tail peptide] | – | – | 91.3 µM |
